# In the supplement of paper PMC6757056:
# ± gives the standard deviation of the averaged measurements.
# B1: library; a variant is named by its letters at N, in order (parent)
# chain: GCUGUCACCGAGAAACUGUGAAGUAUAUCUUAAACCUGGGCACUUAAAAGAUAUAUGGAGUUAGUAGUGCAACCUGCUCGGUCUGAUGAGUCCNNNNNNGGACGAAACAGC
# Key:
# [1] = variants of: B1; assay: FACS-Seq fitted mean relative fluorescence mCherry/BFP without ligand (log10 relative fluorescence); HEK293T; ligand: cyclic di-GMP (c-di-GMP-II aptamer); higher = higher reporter protein expression; settings: ligand present: no
# Summary of the method: (§1)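 HEK293T libraries were made by lentiviral transduction with a ribozyme-switch mCherry reporter and an EF1α-BFP marker, enriched, and incubated with or without ligand for 48 h. Cells were sorted into 6 mCherry/BFP bins, and each bin's genomic DNA was PCR-amplified, barcoded and run on MiSeq. Fluorescence was derived by normal fitting of the bin counts. The fitted log10(mCherry/BFP) mean was scaled to five spiked-in control ribozymes.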
# [2] = variants of: B1; assay: normalized RNA/DNA level without ligand (relative to sTRSVctl = 100) (log10 (% of sTRSVctl)); HEK293T; ligand: cyclic di-GMP (c-di-GMP-II aptamer); higher = less ribozyme self-cleavage, higher mRNA level; settings: reporter: mCherry (pCS4076), ligand present: no
# Method: (§2)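 Hammerhead (sTRSV) ribozyme switch libraries with a ligand aptamer grafted on stem I and a randomized N4-6 loop II, cloned into the 3' UTR of mCherry and transiently transfected into HEK293T cells; RNA-Seq 72 h post transfection with ligand added 1 h before transfection; RNA read count / plasmid DNA read count normalized to the non-cleaving sTRSVctl (x100), log10; sequences with >100 DNA reads. FACS-Seq: lentiviral library sorted into 6 bins after 48 h ligand, log-normal fit mean of mCherry/BFP scaled to controls. Printed sequences are partial switch sequences.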
# [3] = variants of: B1; assay: FACS-Seq fitted mean relative fluorescence mCherry/BFP with ligand (log10 relative fluorescence); HEK293T; ligand: cyclic di-GMP (c-di-GMP-II aptamer); ligand concentration (+) FACS-Seq: 1 mM; higher = higher reporter protein expression; settings: ligand present: yes
# Summary of the method: as §1
# [4] = variants of: B1; assay: normalized RNA/DNA level with ligand (relative to sTRSVctl = 100) (log10 (% of sTRSVctl)); HEK293T; ligand: cyclic di-GMP (c-di-GMP-II aptamer); ligand concentration (+) RNA-Seq: 1 mM; higher = less ribozyme self-cleavage, higher mRNA level; settings: reporter: mCherry (pCS4076), ligand present: yes
# Method: as §2
Variant,FACS-Seq fitted mean (log10) [1],normalized RNA/DNA level without ligand (log10) [2],FACS-Seq fitted mean (log10) [3],normalized RNA/DNA level with ligand (log10) [4]
GCCGAU,-0.47 ± 0.078,1.55 ± 0.034,-0.231 ± 0.064,1.74 ± 0.1
AGCACU,0.129 ± 0.16,1.7 ± 0.023,0.4 ± 0.012,1.82 ± 0.12
AUACGA,-0.518 ± 0.09,1.46 ± 0.08,-0.228 ± 0.13,1.67 ± 0.14
CCGGAA,-0.512 ± 0.023,1.28 ± 0.09,-0.209 ± 0.03,1.47 ± 0.12
UGACUC,-0.0587 ± 0.12,1.726 ± 0.0085,0.268 ± 0.025,1.86 ± 0.12
CUCUUG,0.116 ± 0.092,1.73 ± 0.029,0.381 ± 0.043,1.86 ± 0.096
ACUCCC,-0.621 ± 0.049,1.77 ± 0.049,-0.284 ± 0.087,1.87 ± 0.14
UUAGUG,-0.38 ± 0.014,1.625 ± 0.0063,-0.0431 ± 0.00068,1.81 ± 0.091
AAUGAG,-0.328 ± 0.065,1.54 ± 0.048,0.0671 ± 0.032,1.71 ± 0.093
CCGUAA,-0.4729 ± 0.0036,1.35 ± 0.17,-0.242 ± 0.019,1.57 ± 0.082
GACUUU,-0.222 ± 0.11,1.723 ± 0.0052,0.162 ± 0.028,1.85 ± 0.083
GCUAAU,-0.207 ± 0.11,1.56 ± 0.049,0.146 ± 0.04,1.74 ± 0.078
CCGGUG,-0.614 ± 0.039,1.27 ± 0.12,-0.397 ± 0.038,1.46 ± 0.11
CGGUAA,-0.662 ± 0.021,1.19 ± 0.052,-0.41 ± 0.069,1.28 ± 0.087
UCGGCA,-0.241 ± 0.26,1.65 ± 0.02,-0.0817 ± 0.0018,1.81 ± 0.12
GUUGAC,-0.0708 ± 0.036,1.658 ± 0.008,0.228 ± 0.1,1.79 ± 0.099
GAAAAU,-0.15 ± 0.048,1.55 ± 0.048,0.162 ± 0.015,1.74 ± 0.1
AGUAGU,0.132 ± 0.03,1.64 ± 0.066,0.367 ± 0.029,1.78 ± 0.13

Variant,FACS-Seq fitted mean (log10) [1],normalized RNA/DNA level without ligand (log10) [2],FACS-Seq fitted mean (log10) [3],normalized RNA/DNA level with ligand (log10) [4]
GCUGGA,-0.599 ± 0.036,1.49 ± 0.085,-0.196 ± 0.038,1.71 ± 0.099
GUAAGA,-0.617 ± 0.027,1.46 ± 0.061,-0.308 ± 0.026,1.61 ± 0.13
UUGAAG,-0.189 ± 0.02,1.639 ± 0.0094,0.0171 ± 0.037,1.81 ± 0.12
ACUGAU,-0.368 ± 0.075,1.43 ± 0.11,-0.128 ± 0.13,1.62 ± 0.11
GUUUUU,-0.978 ± 0.05,1.715 ± 0.0068,-0.711 ± 0.12,1.87 ± 0.12
AUUGCC,-0.0783 ± 0.14,1.776 ± 0.0015,0.207 ± 0.0046,1.92 ± 0.12
GUACGG,0.00232 ± 0.14,1.62 ± 0.053,0.333 ± 0.011,1.77 ± 0.059
CGCCUC,0.0848 ± 0.15,1.713 ± 0.011,0.399 ± 0.0065,1.85 ± 0.067
CUCGCU,-0.0213 ± 0.09,1.8 ± 0.047,0.226 ± 0.12,1.9 ± 0.079
AUACAU,-0.192 ± 0.015,1.62 ± 0.062,0.241 ± 0.0042,1.78 ± 0.074
CCUUUA,-0.242 ± 0.11,1.38 ± 0.062,0.149 ± 0.0049,1.64 ± 0.1
CUUAAU,-0.0367 ± 0.24,1.55 ± 0.096,0.142 ± 0.073,1.71 ± 0.1
CUUUCU,-0.275 ± 0.072,1.65 ± 0.072,0.0435 ± 0.082,1.77 ± 0.095
AGUGUC,-0.2695 ± 0.0013,1.62 ± 0.071,0.0884 ± 0.21,1.76 ± 0.052
AGAUGA,-0.545 ± 0.04,1.4 ± 0.13,-0.336 ± 0.063,1.61 ± 0.14
CCUGUA,-0.428 ± 0.0045,1.54 ± 0.15,-0.0267 ± 0.0096,1.73 ± 0.077
AUGAGA,-0.299 ± 0.14,1.35 ± 0.12,-0.147 ± 0.0049,1.54 ± 0.15
CCCGUA,-0.351 ± 0.12,1.55 ± 0.067,-0.0502 ± 0.012,1.72 ± 0.055
